Experimental findings from the supplement of paper PMC12338614 are described below.

B1: library; numbered along this chain (parent)
chain: MEVVDPQQLGMFTEGELMSVGMDTFIHRIDSTEVIYQPRRKRAKLIGKYLMGDLLGEGSYGKVKEVLDSETLCRRAVKILKKKKLRRIPNGEANVKKEIQLLRRLRHKNVIQLVDVLYNEEKQKMYMVMEYCVCGMQEMLDSVPEKRFPVCQAHGYFCQLIDGLEYLHSQGIVHKDIKPGNLLLTTGGTLKISDLGVAEALHPFAADDTCRTSQGSPAFQPPEIANGLDTFSGFKVDIWSAGVTLYNITTGLYPFEGDNIYKLFENIGKGSYAIPGDCGPPLSDLLKGMLEYEPAKRFSIRQIRQHSWFRKKHPPAEAPVPIPPSPDTKDRWRSMTVVPYLEDLHGADEDEDLFDIEDDIIYTQDFTVPGQVPEEEASHNGQRRGLPKAVCMNGTEAAQLSTKSRAEGRAPNPARKACSASSKIRRLSACKQQ

± gives the uncertainty stated by the source.

In this series the parent is B1. As to the kind of experiment: STK11 functional score (HeLa growth suppression), rescaled enrichment; synonymous median = 1, nonsense median = 0 (normalised score). The settings on record: with HeLa; variant type: missense. A digest of the protocol: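 The values are functional scores: wild-type-corrected log ratios of post- versus pre-selection abundance, rescaled to synonymous and nonsense medians, merged over codons and replicate transfections, and carrying bootstrapped error. They derive from codon-randomised (POPCode), codon-optimised STK11 libraries that Bxb1 integrated at an AAVS1 landing pad in HeLa, with three transfections for each of three regions. Sequencing of tiled gDNA amplicons ran on NextSeq, at ~2 million reads per tile.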
As for MEVVDPQQLGMFTEGELMSVGMDTFIHRIDSTEVIYQPRRKRAKLIGKYLMGDLLGEGSYGKVKEVLDSETLCRRAVKILKKKKLRRIPNGEANVKKEIQLLRRLRHKNVIQLVDVLYNEEKQKMYMVMEYCVCGMQEMLDSVPEKRFPVCQAHGYFCQLIDGLEYLHSQGIVHKDIKPGNLLLTTGGTLKISDLGVAEALHPFAADDTCRTSQGSPAFQPPEIANGLDTFSGFKVDIWSAGVTLYNITTGLYPFEGDNIYKLFENAGKGSYAIPGDCGPPLSDLLKGMLEYEPAKRFSIRQIRQHSWFRKKHPPAEAPVPIPPSPDTKDRWRSMTVVPYLEDLHGADEDEDLFDIEDDIIYTQDFTVPGQVPEEEASHNGQRRGLPKAVCMNGTEAAQLSTKSRAEGRAPNPARKACSASSKIRRLSACKQQ [I267A], the STK11 functional score was determined as 1 ± 0.34.

As for MEVVDPQQLGMFTEGELMSVGMDTFIHRIDSTEVIYQPRRKRAKLIGKYLMGDLLGEGSYGKVKEVLDSETLCRRAVKILKKKKLRRIPNGEANVKKEIQLLRRLRHKNVIQLVDVLYNEEKQKMYMVMEYCVCGMQEMLDSVPEKRFPVCQAHGYFCQLIDGLEYLHSQGIVHKDIKPGNLLLTTGGTLKISDLGVAEALHPFAADDTCRTSQGSPAFQPPEIANGLDTFSGFKVDIWSAGVTLYNITTGLYPFEGDNIYKLFERIGKGSYAIPGDCGPPLSDLLKGMLEYEPAKRFSIRQIRQHSWFRKKHPPAEAPVPIPPSPDTKDRWRSMTVVPYLEDLHGADEDEDLFDIEDDIIYTQDFTVPGQVPEEEASHNGQRRGLPKAVCMNGTEAAQLSTKSRAEGRAPNPARKACSASSKIRRLSACKQQ [N266R], the STK11 functional score came out at 1.3 ± 0.14.

Turning to MEVVDPQQLGMFTEGELMSVGMDTFIHRIDSTEVIYQPRRKRAKLIGKYLMGDLLGEGSYGKVKEVLDSETLCRRAVKILKKKKLRRIPNGEANVKKEIQLLRRLRHKNVIQLVDVLYNEEKQKMYMVMEYCVCGMQEMLDSVPEKRFPVCQAHGYFCQLIDGLEYLHSQGIVHKDIKPGNLLLTTGGTLKISDLGVAEALHPFAADDTCRTSQGSPAFQPPEIANGLDTFSGFKVDIWSAGVTLYNITTGLYPFEGDNIYKLFEMIGKGSYAIPGDCGPPLSDLLKGMLEYEPAKRFSIRQIRQHSWFRKKHPPAEAPVPIPPSPDTKDRWRSMTVVPYLEDLHGADEDEDLFDIEDDIIYTQDFTVPGQVPEEEASHNGQRRGLPKAVCMNGTEAAQLSTKSRAEGRAPNPARKACSASSKIRRLSACKQQ [N266M], the STK11 functional score was determined as 0.331 ± 0.095.

As for MEVVDPQQLGMFTEGELMSVGMDTFIHRIDSTEVIYQPRRKRAKLIGKYLMGDLLGEGSYGKVKEVLDSETLCRRAVKILKKKKLRRIPNGEANVKKEIQLLRRLRHKNVIQLVDVLYNEEKQKMYMVMEYCVCGMQEMLDSVPEKRFPVCQAHGYFCQLIDGLEYLHSQGIVHKDIKPGNLLLTTGGTLKISDLGVAEALHPFAADDTCRTSQGSPAFQPPEIANGLDTFSGFKVDIWSAGVTLYNITTGLYPFEGDNIYKLFEHIGKGSYAIPGDCGPPLSDLLKGMLEYEPAKRFSIRQIRQHSWFRKKHPPAEAPVPIPPSPDTKDRWRSMTVVPYLEDLHGADEDEDLFDIEDDIIYTQDFTVPGQVPEEEASHNGQRRGLPKAVCMNGTEAAQLSTKSRAEGRAPNPARKACSASSKIRRLSACKQQ [N266H], the STK11 functional score was 1.29 ± 0.56.

Regarding MEVVDPQQLGMFTEGELMSVGMDTFIHRIDSTEVIYQPRRKRAKLIGKYLMGDLLGEGSYGKVKEVLDSETLCRRAVKILKKKKLRRIPNGEANVKKEIQLLRRLRHKNVIQLVDVLYNEEKQKMYMVMEYCVCGMQEMLDSVPEKRFPVCQAHGYFCQLIDGLEYLHSQGIVHKDIKPGNLLLTTGGTLKISDLGVAEALHPFAADDTCRTSQGSPAFQPPEIANGLDTFSGFKVDIWSAGVTLYNITTGLYPFEGDNIYKLFETIGKGSYAIPGDCGPPLSDLLKGMLEYEPAKRFSIRQIRQHSWFRKKHPPAEAPVPIPPSPDTKDRWRSMTVVPYLEDLHGADEDEDLFDIEDDIIYTQDFTVPGQVPEEEASHNGQRRGLPKAVCMNGTEAAQLSTKSRAEGRAPNPARKACSASSKIRRLSACKQQ [N266T], the STK11 functional score stood at 0.876 ± 0.28.

For MEVVDPQQLGMFTEGELMSVGMDTFIHRIDSTEVIYQPRRKRAKLIGKYLMGDLLGEGSYGKVKEVLDSETLCRRAVKILKKKKLRRIPNGEANVKKEIQLLRRLRHKNVIQLVDVLYNEEKQKMYMVMEYCVCGMQEMLDSVPEKRFPVCQAHGYFCQLIDGLEYLHSQGIVHKDIKPGNLLLTTGGTLKISDLGVAEALHPFAADDTCRTSQGSPAFQPPEIANGLDTFSGFKVDIWSAGVTLYNITTGLYPFEGDNIYKLFEPIGKGSYAIPGDCGPPLSDLLKGMLEYEPAKRFSIRQIRQHSWFRKKHPPAEAPVPIPPSPDTKDRWRSMTVVPYLEDLHGADEDEDLFDIEDDIIYTQDFTVPGQVPEEEASHNGQRRGLPKAVCMNGTEAAQLSTKSRAEGRAPNPARKACSASSKIRRLSACKQQ [N266P], the STK11 functional score came to 1.09 ± 0.12.

For the variant MEVVDPQQLGMFTEGELMSVGMDTFIHRIDSTEVIYQPRRKRAKLIGKYLMGDLLGEGSYGKVKEVLDSETLCRRAVKILKKKKLRRIPNGEANVKKEIQLLRRLRHKNVIQLVDVLYNEEKQKMYMVMEYCVCGMQEMLDSVPEKRFPVCQAHGYFCQLIDGLEYLHSQGIVHKDIKPGNLLLTTGGTLKISDLGVAEALHPFAADDTCRTSQGSPAFQPPEIANGLDTFSGFKVDIWSAGVTLYNITTGLYPFEGDNIYKLFEIIGKGSYAIPGDCGPPLSDLLKGMLEYEPAKRFSIRQIRQHSWFRKKHPPAEAPVPIPPSPDTKDRWRSMTVVPYLEDLHGADEDEDLFDIEDDIIYTQDFTVPGQVPEEEASHNGQRRGLPKAVCMNGTEAAQLSTKSRAEGRAPNPARKACSASSKIRRLSACKQQ [N266I], the STK11 functional score was determined as 1.38 ± 0.35.

With MEVVDPQQLGMFTEGELMSVGMDTFIHRIDSTEVIYQPRRKRAKLIGKYLMGDLLGEGSYGKVKEVLDSETLCRRAVKILKKKKLRRIPNGEANVKKEIQLLRRLRHKNVIQLVDVLYNEEKQKMYMVMEYCVCGMQEMLDSVPEKRFPVCQAHGYFCQLIDGLEYLHSQGIVHKDIKPGNLLLTTGGTLKISDLGVAEALHPFAADDTCRTSQGSPAFQPPEIANGLDTFSGFKVDIWSAGVTLYNITTGLYPFEGDNIYKLFESIGKGSYAIPGDCGPPLSDLLKGMLEYEPAKRFSIRQIRQHSWFRKKHPPAEAPVPIPPSPDTKDRWRSMTVVPYLEDLHGADEDEDLFDIEDDIIYTQDFTVPGQVPEEEASHNGQRRGLPKAVCMNGTEAAQLSTKSRAEGRAPNPARKACSASSKIRRLSACKQQ [N266S], the STK11 functional score amounted to 0.965 ± 0.15.

Turning to MEVVDPQQLGMFTEGELMSVGMDTFIHRIDSTEVIYQPRRKRAKLIGKYLMGDLLGEGSYGKVKEVLDSETLCRRAVKILKKKKLRRIPNGEANVKKEIQLLRRLRHKNVIQLVDVLYNEEKQKMYMVMEYCVCGMQEMLDSVPEKRFPVCQAHGYFCQLIDGLEYLHSQGIVHKDIKPGNLLLTTGGTLKISDLGVAEALHPFAADDTCRTSQGSPAFQPPEIANGLDTFSGFKVDIWSAGVTLYNITTGLYPFEGDNIYKLFEEIGKGSYAIPGDCGPPLSDLLKGMLEYEPAKRFSIRQIRQHSWFRKKHPPAEAPVPIPPSPDTKDRWRSMTVVPYLEDLHGADEDEDLFDIEDDIIYTQDFTVPGQVPEEEASHNGQRRGLPKAVCMNGTEAAQLSTKSRAEGRAPNPARKACSASSKIRRLSACKQQ [N266E], the STK11 functional score stood at 0.101 ± 0.94.

Regarding MEVVDPQQLGMFTEGELMSVGMDTFIHRIDSTEVIYQPRRKRAKLIGKYLMGDLLGEGSYGKVKEVLDSETLCRRAVKILKKKKLRRIPNGEANVKKEIQLLRRLRHKNVIQLVDVLYNEEKQKMYMVMEYCVCGMQEMLDSVPEKRFPVCQAHGYFCQLIDGLEYLHSQGIVHKDIKPGNLLLTTGGTLKISDLGVAEALHPFAADDTCRTSQGSPAFQPPEIANGLDTFSGFKVDIWSAGVTLYNITTGLYPFEGDNIYKLFEGIGKGSYAIPGDCGPPLSDLLKGMLEYEPAKRFSIRQIRQHSWFRKKHPPAEAPVPIPPSPDTKDRWRSMTVVPYLEDLHGADEDEDLFDIEDDIIYTQDFTVPGQVPEEEASHNGQRRGLPKAVCMNGTEAAQLSTKSRAEGRAPNPARKACSASSKIRRLSACKQQ [N266G], the STK11 functional score was 0.477 ± 0.1.

As for MEVVDPQQLGMFTEGELMSVGMDTFIHRIDSTEVIYQPRRKRAKLIGKYLMGDLLGEGSYGKVKEVLDSETLCRRAVKILKKKKLRRIPNGEANVKKEIQLLRRLRHKNVIQLVDVLYNEEKQKMYMVMEYCVCGMQEMLDSVPEKRFPVCQAHGYFCQLIDGLEYLHSQGIVHKDIKPGNLLLTTGGTLKISDLGVAEALHPFAADDTCRTSQGSPAFQPPEIANGLDTFSGFKVDIWSAGVTLYNITTGLYPFEGDNIYKLFEVIGKGSYAIPGDCGPPLSDLLKGMLEYEPAKRFSIRQIRQHSWFRKKHPPAEAPVPIPPSPDTKDRWRSMTVVPYLEDLHGADEDEDLFDIEDDIIYTQDFTVPGQVPEEEASHNGQRRGLPKAVCMNGTEAAQLSTKSRAEGRAPNPARKACSASSKIRRLSACKQQ [N266V], the STK11 functional score amounted to 0.844 ± 0.18.

Take MEVVDPQQLGMFTEGELMSVGMDTFIHRIDSTEVIYQPRRKRAKLIGKYLMGDLLGEGSYGKVKEVLDSETLCRRAVKILKKKKLRRIPNGEANVKKEIQLLRRLRHKNVIQLVDVLYNEEKQKMYMVMEYCVCGMQEMLDSVPEKRFPVCQAHGYFCQLIDGLEYLHSQGIVHKDIKPGNLLLTTGGTLKISDLGVAEALHPFAADDTCRTSQGSPAFQPPEIANGLDTFSGFKVDIWSAGVTLYNITTGLYPFEGDNIYKLFELIGKGSYAIPGDCGPPLSDLLKGMLEYEPAKRFSIRQIRQHSWFRKKHPPAEAPVPIPPSPDTKDRWRSMTVVPYLEDLHGADEDEDLFDIEDDIIYTQDFTVPGQVPEEEASHNGQRRGLPKAVCMNGTEAAQLSTKSRAEGRAPNPARKACSASSKIRRLSACKQQ [N266L]: the STK11 functional score was 0.675 ± 0.16.

As to MEVVDPQQLGMFTEGELMSVGMDTFIHRIDSTEVIYQPRRKRAKLIGKYLMGDLLGEGSYGKVKEVLDSETLCRRAVKILKKKKLRRIPNGEANVKKEIQLLRRLRHKNVIQLVDVLYNEEKQKMYMVMEYCVCGMQEMLDSVPEKRFPVCQAHGYFCQLIDGLEYLHSQGIVHKDIKPGNLLLTTGGTLKISDLGVAEALHPFAADDTCRTSQGSPAFQPPEIANGLDTFSGFKVDIWSAGVTLYNITTGLYPFEGDNIYKLFEWIGKGSYAIPGDCGPPLSDLLKGMLEYEPAKRFSIRQIRQHSWFRKKHPPAEAPVPIPPSPDTKDRWRSMTVVPYLEDLHGADEDEDLFDIEDDIIYTQDFTVPGQVPEEEASHNGQRRGLPKAVCMNGTEAAQLSTKSRAEGRAPNPARKACSASSKIRRLSACKQQ [N266W], the STK11 functional score was found to be 0.574 ± 0.1.

As to MEVVDPQQLGMFTEGELMSVGMDTFIHRIDSTEVIYQPRRKRAKLIGKYLMGDLLGEGSYGKVKEVLDSETLCRRAVKILKKKKLRRIPNGEANVKKEIQLLRRLRHKNVIQLVDVLYNEEKQKMYMVMEYCVCGMQEMLDSVPEKRFPVCQAHGYFCQLIDGLEYLHSQGIVHKDIKPGNLLLTTGGTLKISDLGVAEALHPFAADDTCRTSQGSPAFQPPEIANGLDTFSGFKVDIWSAGVTLYNITTGLYPFEGDNIYKLFEKIGKGSYAIPGDCGPPLSDLLKGMLEYEPAKRFSIRQIRQHSWFRKKHPPAEAPVPIPPSPDTKDRWRSMTVVPYLEDLHGADEDEDLFDIEDDIIYTQDFTVPGQVPEEEASHNGQRRGLPKAVCMNGTEAAQLSTKSRAEGRAPNPARKACSASSKIRRLSACKQQ [N266K], the STK11 functional score worked out at 0.318 ± 0.26.
